The test system of this data set is IMP3 (GST-/His-tagged) (human). As to the kind of experiment: EMSA. The note with it: EMSA: 10 mM Tris-HCl pH 7.5, 150 mM NaCl, 0.5 mM EDTA, 0.5 mM DTT, 0.1% NP-40, 5% glycerol, RNaseOUT, 1 ug tRNA, 1 ug BSA, 5 nM RNA, 30 min at 25 C, then 5 min ….

As a reminder, the Kd is the constant that tells how readily two partners part at equilibrium. In the case of ANKRD17 linear, the Kd came out at 8.7 nM.
all-UG circRNA gave a Kd (circular (T4 RNA ligase)) of 60.3 nM. That is a double-digit nanomolar value.
Still for that read-out and setting: with 101-mer circRNA the figure was 10.4 nM.
The substance 101-mer linear came in with a dissociation constant (Kd) of 9.3 nM. This counts as single-digit nanomolar.
The same measure, in the same setting: the result for all-UG linear reads 48.8 nM.
In the case of ANKRD17 circRNA, under “circular (T4 RNA ligase)”, the Kd came to 8.5 nM.
